In patent US20250257133A1 (ADAGENE PTE, published 2025):
Residue numbers refer to the chain shown, from its start. In names and notes the source's numbering stands.

B1: TY24855 (antibody, human IgG4 S228P, kappa, V domains shown)
VH: EVQLVESGGGLVQPGGSLRLSCAASGYSITSGHHWSWIRQAPGKGLEWIGDIYHSGSTYYNPSLKSRVTISRDNSKNTLYLQLNSLRAEDTAVYYCARKDDYYAFDYWGQGTLVTVSS
VL: DIQLTQSPSSLSASVGDRVTITCRAPQSVDFHGKSFLHWYQQKPGKAPKLLIYDASNRATGIPSRFSGSGSGTDFTLTISSLQPEDFATYYCQQSYRSPITFGQGTKVEIKR
notes: hIgG4/S241P
B2: TY24858 (antibody, human IgG4 S228P, kappa, V domains shown)
VH: EVQLVESGGGLVQPGGSLRLSCAASGYSISSGHHWTWIRQAPGKGLEWIGEIYHSGSTYYSPSLKSRVTISRDNSKNTLYLQLNSLRAEDTAVYYCARRDYGSSYFDYWGQGTLVTVSS
VL: DIQLTQSPSSLSASVGDRVTITCRASQSVSRSFLAWYQQKPGKAPKLLIYDASNRATGIPSRFSGSGSGTDFTLTISSLQPEDFATYYCQQYYRSPITFGQGTKVEIKR
notes: hIgG4/S241P
B3: TY24864 (antibody, human IgG4 S228P, kappa, V domains shown)
VH: EVQLVESGGGLVQPGGSLRLSCAASGFSLSTSGVGVSWIRQAPGKGLEWIGAIYHSGSTYYSPSLKSRVTISRDNSKNTLYLQLNSLRAEDTAVYYCARYGYSYYAFDYWGQGTLVTVSS
VL: DIQLTQSPSSLSASVGDRVTITCRASQTIGSFLNWYQQKPGKAPKLLIYDASSLESGVPSRFSGSGSGTDFTLTISSLQPEDFATYYCQQSYSYQTFGQGTKVEIKR
notes: hIgG4/S241P
B4: TY24857 (antibody, human IgG4 S228P, kappa, V domains shown)
VH: B3 VH with G35A, S37G, A52E, Y100H, S103H, F107L
VL: DIQLTQSPSSLSASVGDRVTITCPASQDVGTAVAWYQQKPGKAPKLLIYDASSLESGVPSRFSGSGSGTDFTLTISSLQPEDFATYYCQQYYSSPPTFGQGTKVEIKR
notes: hIgG4/S241P
B5: TY24856 (antibody, human IgG4 S228P, kappa, V domains shown)
VH: B2 VH with T36S, Y101F, S103A
VL: B3 VL with T28G, I29V, S31P, F32W, N34A, D50A, E55Q, S91Y, Q95S
notes: hIgG4/S241P
B6: TY24881 (antibody, human IgG4 S228P, kappa, V domains shown)
VH: QVQLVQSGAEVKKPGSSVKVSCKASGFSLSTGGVGVTWIRQAPGQGLEWIGSIYHSGSTYYSPSLKSRVTITADKSTSTAYMELSSLRSEDTAVYYCARYDYGYYSFDVWGQGTLVTVSS
VL: DIQLTQSPSSLSASVGDRVTITCRASQSVDFDAFSFLAWYQQKPGKAPKLLIYAASTLQSGVPSRFSGSGSGTDFTLTISSLQPEDFATYYCQQSYSASTFGQGTKVEIKR
notes: hIgG4/S241P
B7: TY24854 (antibody, human IgG4 S228P, kappa, V domains shown)
VH: EVQLVESGGGLVQPGGSLRLSCAASGYSITSGYHWGWIRQAPGKGLEWIGEIYHSGSTYYSPSLKSRVTISRDNSKNTLYLQLNSLRAEDTAVYYCARRRGDGYFDFWGQGTLVTVSS
VL: B1 VL with P26S, H32L, K34I, S98T, I100L
notes: hIgG4/S241P
B8: TY24871 (antibody, human IgG4 S228P, kappa, V domains shown)
VH: QVQLVQSGAEVKKPGSSVKVSCKASGFTFSSYAIHWVRQAPGQGLEWIGSIYHSGSTYYSPSLKSRVTITADKSTSTAYMELSSLRSEDTAVYYCARDVYGSYALDVWGQGTLVTVSS
VL: B1 VL with P26S, H32D, K34I, N57S, R58L, A59E, T60S, I62V
notes: hIgG4/S241P
B9: TY28657 (bispecific antibody, human IgG1, kappa, N297A)
light: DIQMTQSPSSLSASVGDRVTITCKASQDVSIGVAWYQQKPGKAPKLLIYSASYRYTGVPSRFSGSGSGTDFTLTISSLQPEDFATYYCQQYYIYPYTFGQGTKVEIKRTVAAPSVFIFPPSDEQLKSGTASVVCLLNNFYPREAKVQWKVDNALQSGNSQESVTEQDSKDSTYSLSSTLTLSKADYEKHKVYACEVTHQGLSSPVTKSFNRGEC
heavy: EVQLVESGGGLVQPGGSLRLSCAASGFTFTDYTMDWVRQAPGKGLEWVADVNPNSGGSIYNQRFKGRFTLSVDRSKNTLYLQMNSLRAEDTAVYYCARNLGPSFYFDYWGQGTLVTVSSASTKGPSVFPLAPSSKSTSGGTAALGCLVKDYFPEPVTVSWNSGALTSGVHTFPAVLQSSGLYSLSSVVTVPSSSLGTQTYICNVNHKPSNTKVDKKVEPKSCDKTHTCPPCPAPELLGGPSVFLFPPKPKDTLMISRTPEVTCVVVDVSHEDPEVKFNWYVDGVEVHNAKTKPREEQYASTYRVVSVLTVLHQDWLNGKEYKCKVSNKALPAPIEKTISKAKGQPREPQVYTLPPSRKKLTKNQVKLTCLVKGFYPSDIAVEWESNGQPENNYKTTPPVLDCDGSFFLYSKLTVDKSRWQQGNVFSCSVMHEALHNHYTQKSLSLSPGK
chain: DIQLTQSPSSLSASVGDRVTITCRASQSVDFHGISFLHWYQQKPGKAPKLLIYAASSLESGVPSRFSGSGSGTDFTLTISSLQPEDFATYYCQQSYRTPRTFGQGTKVEIKGGGGSGGGGSGGGGSGGGGSEVQLVESGGGLVQPGGSLRLSCAASGFSLSTGGVGVGWIRQAPGKGLEWIGEIYHSGSTYYNPSLKSRVTISRDNSKNTLYLQLNSLRAEDTAVYYCARYEYGYYAFDYWGQGTLVTVSSEPKSSDKTHTCPPCPAPELLGGPSVFLFPPKPKDTLMISRTPEVTCVVVDVSHEDPEVKFNWYVDGVEVHNAKTKPREEQYASTYRVVSVLTVLHQDWLNGKEYKCKVSNKALPAPIEKTISKAKGQPREPQVYTDPPSRDELTKNQVSLTCLVDGFYPSDIAVEWESNGQPENCYKTTPPVLDSDGSFFLYSKLTVDKSRWQQGNVFSCSVMHEALHNHYTQDSLSLSPGK
notes: anti-HER2 Fab x CD28 scFv BC8237 (VL-VH)-Fc
B10: TY29109 (bispecific antibody, human IgG1, kappa, N297A)
light: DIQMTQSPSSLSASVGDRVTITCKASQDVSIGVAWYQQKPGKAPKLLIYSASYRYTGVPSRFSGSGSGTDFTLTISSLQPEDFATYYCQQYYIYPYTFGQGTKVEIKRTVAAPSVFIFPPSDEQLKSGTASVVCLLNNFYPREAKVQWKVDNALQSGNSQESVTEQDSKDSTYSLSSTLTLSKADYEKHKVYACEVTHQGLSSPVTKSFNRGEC
heavy: B9 heavy
chain: EVQLVESGGGLVQPGGSLRLSCAASGFSLSTGGVGVSWIRQAPGKGLEWIGEIYHSGSTYYSPSLKSRVTISRDNSKNTLYLQLNSLRAEDTAVYYCARYEYYYYDFDYWGQGTLVTVSSGGGGSGGGGSGGGGSGGGGSDIQLTQSPSSLSASVGDRVTITCRASQSVDFHGISFLHWYQQKPGKAPKLLIYAASSLQSGVPSRFSGSGSGTDFTLTISSLQPEDFATYYCQQSYRSPRTFGQGTKVEIKEPKSSDKTHTCPPCPAPELLGGPSVFLFPPKPKDTLMISRTPEVTCVVVDVSHEDPEVKFNWYVDGVEVHNAKTKPREEQYASTYRVVSVLTVLHQDWLNGKEYKCKVSNKALPAPIEKTISKAKGQPREPQVYTDPPSRDELTKNQVSLTCLVDGFYPSDIAVEWESNGQPENCYKTTPPVLDSDGSFFLYSKLTVDKSRWQQGNVFSCSVMHEALHNHYTQDSLSLSPGK
notes: anti-HER2 Fab x CD28 scFv WT (VH-VL)-Fc; also called TY29109 (WT)
B11: TY29314 (bispecific antibody, human IgG1, kappa, N297A)
light: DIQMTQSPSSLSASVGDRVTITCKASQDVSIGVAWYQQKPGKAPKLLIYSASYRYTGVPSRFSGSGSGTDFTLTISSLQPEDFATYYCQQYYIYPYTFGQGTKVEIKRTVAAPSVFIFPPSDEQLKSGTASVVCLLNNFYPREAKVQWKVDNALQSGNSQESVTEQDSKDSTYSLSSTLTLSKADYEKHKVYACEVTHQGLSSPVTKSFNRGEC
heavy: B9 heavy
chain: B10 chain with G32S, Y104S, D106A, I174K
notes: anti-HER2 Fab x CD28 scFv BC8257 (VH-VL)-Fc
B12: TY28658 (bispecific antibody, human IgG1, kappa, N297A)
light: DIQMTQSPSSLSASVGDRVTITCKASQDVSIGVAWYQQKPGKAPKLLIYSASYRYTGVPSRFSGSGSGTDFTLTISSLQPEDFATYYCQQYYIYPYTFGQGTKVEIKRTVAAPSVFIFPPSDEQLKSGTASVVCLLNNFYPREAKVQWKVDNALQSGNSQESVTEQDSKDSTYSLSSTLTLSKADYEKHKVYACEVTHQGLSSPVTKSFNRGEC
heavy: B9 heavy
chain: B9 chain with H32Y, I34K, T98S, R100L, G163S, E183S, G234D, A237D
notes: anti-HER2 Fab x CD28 scFv BC8240 (VL-VH)-Fc
B13: TY28659 (bispecific antibody, human IgG1, kappa, N297A)
light: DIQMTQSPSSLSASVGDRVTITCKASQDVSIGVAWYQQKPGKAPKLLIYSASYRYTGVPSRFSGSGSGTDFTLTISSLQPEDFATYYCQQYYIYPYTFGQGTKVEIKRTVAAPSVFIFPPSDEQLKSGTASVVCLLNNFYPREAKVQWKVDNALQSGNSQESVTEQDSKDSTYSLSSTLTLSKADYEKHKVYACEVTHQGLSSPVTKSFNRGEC
heavy: B9 heavy
chain: B9 chain with E59Q, T98S, G163S, G168S
notes: anti-HER2 Fab x CD28 scFv BC8242 (VL-VH)-Fc
B14: TY28661 (bispecific antibody, human IgG1, kappa, N297A)
light: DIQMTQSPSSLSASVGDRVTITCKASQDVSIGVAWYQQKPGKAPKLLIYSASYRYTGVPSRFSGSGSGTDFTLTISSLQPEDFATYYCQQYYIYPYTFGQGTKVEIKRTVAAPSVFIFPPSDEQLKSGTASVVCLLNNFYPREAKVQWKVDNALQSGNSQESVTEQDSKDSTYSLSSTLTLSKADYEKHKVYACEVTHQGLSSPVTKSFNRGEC
heavy: B9 heavy
chain: B9 chain with H32Y, R100L, G168S, E183S, N193S, G234D
notes: anti-HER2 Fab x CD28 scFv BC8263 (VL-VH)-Fc
B15: TY29308 (bispecific antibody, human IgG1, kappa, N297A)
light: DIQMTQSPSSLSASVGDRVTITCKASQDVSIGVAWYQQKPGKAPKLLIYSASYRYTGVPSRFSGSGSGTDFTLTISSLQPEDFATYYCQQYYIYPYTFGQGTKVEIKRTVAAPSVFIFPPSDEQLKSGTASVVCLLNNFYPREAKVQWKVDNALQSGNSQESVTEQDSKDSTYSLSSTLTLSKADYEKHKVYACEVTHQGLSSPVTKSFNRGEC
heavy: B9 heavy
chain: B10 chain with G32S, E52S, S62N, Y103G, D106A, H172Y, I174K, S238T, R240L
notes: anti-HER2 Fab x CD28 scFv BC8230 (VH-VL)-Fc
B16: TY29315 (bispecific antibody, human IgG1, kappa, N297A)
light: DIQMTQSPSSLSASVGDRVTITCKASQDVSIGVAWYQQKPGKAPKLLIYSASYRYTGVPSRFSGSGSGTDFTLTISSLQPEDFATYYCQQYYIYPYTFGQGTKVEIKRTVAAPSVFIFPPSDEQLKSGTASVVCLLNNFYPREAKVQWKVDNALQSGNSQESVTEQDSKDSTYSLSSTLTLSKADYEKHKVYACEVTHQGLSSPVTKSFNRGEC
heavy: B9 heavy
chain: B10 chain with E52S, Y103D, D106A, H172Y, Q199E, S238T, R240L
notes: anti-HER2 Fab x CD28 scFv BC8263 (VH-VL)-Fc
B17: TY29309 (bispecific antibody, human IgG1, kappa, N297A)
light: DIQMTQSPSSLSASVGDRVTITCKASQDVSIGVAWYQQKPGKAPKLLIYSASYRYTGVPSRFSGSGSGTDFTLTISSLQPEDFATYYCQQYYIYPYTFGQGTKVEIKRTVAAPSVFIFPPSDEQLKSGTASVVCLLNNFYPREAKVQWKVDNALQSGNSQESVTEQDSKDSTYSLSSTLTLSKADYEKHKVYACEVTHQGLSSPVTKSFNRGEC
heavy: B9 heavy
chain: B10 chain with G32S, E52S, S62N, Y103D, D106A, H172Y, S238T
notes: anti-HER2 Fab x CD28 scFv BC8233 (VH-VL)-Fc
B18: TY29310 (bispecific antibody, human IgG1, kappa, N297A)
light: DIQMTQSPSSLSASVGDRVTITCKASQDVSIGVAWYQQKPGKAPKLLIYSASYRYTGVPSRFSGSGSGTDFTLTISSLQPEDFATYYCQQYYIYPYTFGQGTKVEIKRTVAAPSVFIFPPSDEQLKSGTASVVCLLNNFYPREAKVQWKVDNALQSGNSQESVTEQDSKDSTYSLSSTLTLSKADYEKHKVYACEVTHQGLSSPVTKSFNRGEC
heavy: B9 heavy
chain: B10 chain with G32S, S37G, Y60N, S62N, Y103G, D106A, F107L, H172Y, I174K, S238T
notes: anti-HER2 Fab x CD28 scFv BC8235 (VH-VL)-Fc
B19: TY29312 (bispecific antibody, human IgG1, kappa, N297A)
light: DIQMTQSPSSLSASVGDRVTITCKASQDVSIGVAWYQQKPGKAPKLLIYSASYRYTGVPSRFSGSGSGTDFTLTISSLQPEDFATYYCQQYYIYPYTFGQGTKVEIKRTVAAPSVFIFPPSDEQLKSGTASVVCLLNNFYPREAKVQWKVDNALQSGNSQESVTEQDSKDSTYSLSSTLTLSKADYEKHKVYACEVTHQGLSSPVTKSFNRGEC
heavy: B9 heavy
chain: B10 chain with G32S, S37G, E52S, S62N, Y103D, H172Y, I174K, Q199E, R240L
notes: anti-HER2 Fab x CD28 scFv BC8240 (VH-VL)-Fc
B20: TY29313 (bispecific antibody, human IgG1, kappa, N297A)
light: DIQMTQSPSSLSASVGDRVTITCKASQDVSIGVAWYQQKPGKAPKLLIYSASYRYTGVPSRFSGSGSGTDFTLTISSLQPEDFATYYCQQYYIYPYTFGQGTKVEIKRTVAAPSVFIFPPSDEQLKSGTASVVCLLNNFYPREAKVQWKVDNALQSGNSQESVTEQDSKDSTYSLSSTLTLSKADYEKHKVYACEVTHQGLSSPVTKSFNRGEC
heavy: B9 heavy
chain: B10 chain with G32S, S62N, Y103G, D106A
notes: anti-HER2 Fab x CD28 scFv BC8242 (VH-VL)-Fc
B21: TY29311 (bispecific antibody, human IgG1, kappa, N297A)
light: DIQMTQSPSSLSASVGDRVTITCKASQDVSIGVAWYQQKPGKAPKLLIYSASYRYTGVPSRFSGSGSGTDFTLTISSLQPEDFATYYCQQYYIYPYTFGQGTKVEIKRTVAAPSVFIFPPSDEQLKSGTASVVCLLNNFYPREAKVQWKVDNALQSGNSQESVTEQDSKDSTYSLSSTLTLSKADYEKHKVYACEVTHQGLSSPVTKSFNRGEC
heavy: B9 heavy
chain: B10 chain with S37G, S62N, Y103G, D106A, Q199E, S238T
notes: anti-HER2 Fab x CD28 scFv BC8237 (VH-VL)-Fc
B22: TY29307 (bispecific antibody, human IgG1, kappa, N297A)
light: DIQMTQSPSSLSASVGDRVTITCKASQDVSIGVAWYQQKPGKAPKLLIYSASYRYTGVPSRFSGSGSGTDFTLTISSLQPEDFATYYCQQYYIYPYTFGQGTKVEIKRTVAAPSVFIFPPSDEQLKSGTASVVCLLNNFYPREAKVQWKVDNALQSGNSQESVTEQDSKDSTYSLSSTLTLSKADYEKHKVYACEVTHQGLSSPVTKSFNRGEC
heavy: B9 heavy
chain: B10 chain with E52S, S62N, Y103G, D106A, F107L, H172Y, S238T, R240P
notes: anti-HER2 Fab x CD28 scFv BC8228 (VH-VL)-Fc
B23: TY29306 (bispecific antibody, human IgG1, kappa, N297A)
light: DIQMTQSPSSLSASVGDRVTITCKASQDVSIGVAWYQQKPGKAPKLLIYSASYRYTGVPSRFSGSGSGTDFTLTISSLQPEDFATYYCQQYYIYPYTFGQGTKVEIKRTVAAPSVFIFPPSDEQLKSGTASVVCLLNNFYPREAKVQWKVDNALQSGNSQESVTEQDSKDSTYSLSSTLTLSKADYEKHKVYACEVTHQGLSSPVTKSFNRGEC
heavy: B9 heavy
chain: B10 chain with E52S, S62N, Y103D, D106A, H172Y, I174K, Q199E, R240P
notes: anti-HER2 Fab x CD28 scFv BC8227 (VH-VL)-Fc
B24: TY28660 (bispecific antibody, human IgG1, kappa, N297A)
light: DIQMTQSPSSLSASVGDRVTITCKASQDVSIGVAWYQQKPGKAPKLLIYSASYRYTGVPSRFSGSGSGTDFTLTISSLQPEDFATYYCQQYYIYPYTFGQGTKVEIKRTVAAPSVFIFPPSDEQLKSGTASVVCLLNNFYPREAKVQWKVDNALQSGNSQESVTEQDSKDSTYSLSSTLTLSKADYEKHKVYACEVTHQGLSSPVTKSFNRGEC
heavy: B9 heavy
chain: B9 chain with I34K, E59Q, T98S, G163S, G168S, N193S, G234Y, Y235S
notes: anti-HER2 Fab x CD28 scFv BC8257 (VL-VH)-Fc

target: T1, His-tagged human CTLA4 protein (human, UniProt P16410 36-161, limits assumed); assay: Octet BLI, mAb captured;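 further: Anti-human Fc biosensors captured the antibodies, then His-tagged protein analytes at 100 nM associated for 300 s and dissociated for 300 s, fitted by a 1:1 Langmuir model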
T1 construct: not shown: His tag
T1 sequence (P16410 36-161 limits assumed): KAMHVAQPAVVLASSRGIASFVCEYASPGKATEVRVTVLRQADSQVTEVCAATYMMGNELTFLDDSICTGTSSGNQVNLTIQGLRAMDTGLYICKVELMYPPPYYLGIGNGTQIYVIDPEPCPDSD

| Kd | koff | kon | Binder |
| --- | --- | --- | --- |
| 4.02 nM | 0.00305 s⁻¹ | 760000 M⁻¹ s⁻¹ | B1 |
| 7.9 nM | 0.00242 s⁻¹ | 306000 M⁻¹ s⁻¹ | B2 |
| 5.5 nM | 0.00284 s⁻¹ | 517000 M⁻¹ s⁻¹ | B3 |
| 5.44 nM | 0.00355 s⁻¹ | 652000 M⁻¹ s⁻¹ | B4 |
| 5.13 nM | 0.00156 s⁻¹ | 304000 M⁻¹ s⁻¹ | B5 |
| 2.35 nM | 0.00262 s⁻¹ | 1.11e+06 M⁻¹ s⁻¹ | B6 |

target: T2, His-tagged human CD28 protein (human, UniProt P10747 19-152); assay: Octet BLI, mAb captured;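 further: Anti-human Fc biosensors captured the antibodies, then His-tagged protein analytes at 100 nM associated for 300 s and dissociated for 300 s, fitted by a 1:1 Langmuir model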
T2 construct: not shown: His tag

| Kd | koff | kon | Binder |
| --- | --- | --- | --- |
| 5.43 nM | 0.000353 s⁻¹ | 64900 M⁻¹ s⁻¹ | B7 |
| 7.93 nM | 0.000628 s⁻¹ | 79200 M⁻¹ s⁻¹ | B1 |
| 4.99 nM | 0.00035 s⁻¹ | 70100 M⁻¹ s⁻¹ | B8 |
| 9.88 nM | 0.000702 s⁻¹ | 71000 M⁻¹ s⁻¹ | B2 |
| 4.41 nM | 0.000416 s⁻¹ | 94200 M⁻¹ s⁻¹ | B3 |
| 8.64 nM | 0.00063 s⁻¹ | 72900 M⁻¹ s⁻¹ | B4 |
| 7.8 nM | 0.000538 s⁻¹ | 68900 M⁻¹ s⁻¹ | B5 |
| 5.25 nM | 0.000662 s⁻¹ | 126000 M⁻¹ s⁻¹ | B6 |

target: T3, Human CD28 on cells (human, UniProt P10747 19-220); assay: flow cytometry, Jurkat cells
T3 construct: Jurkat E6-1 cells, primary human T cells, or transfected HEK293F cells; also called CD28 on Jurkat cells; CD28 on human CD3+ T cells
Procedure: Next, the cells were washed twice with DPBS and further incubated with a APC-anti-human IgG Fc secondary antibody (1 μg/mL, 100 μL/well, Biolegend) for 30 minutes at 4° C. Finally, the cells were washed twice with DPBS and suspended in FACS buffer for flow cytometry analysis. For analysis, the Mean Fluorescence Intensity (MFI) values versus concentrations were plotted using FlowJo 10 software (FlowJo LLC) and the data were further fitted with four-parameter non-linear regression to obtain EC₅₀ values by GraphPad Prism version 7 for Windows, GraphPad Software, La Jolla California USA, www.graphpad.com.

| EC50 | Binder |
| --- | --- |
| 0.6 nM | B7 |
| 0.61 nM | B1 |
| 0.89 nM | B8 |
| 0.7 nM | B2 |
| 0.54 nM | B3 |
| 0.75 nM | B4 |
| 0.76 nM | B5 |
| 0.38 nM | B6 |

target: Human CD28 (ELISAs of Examples 4 and 13) (human, UniProt P10747 19-152, limits assumed); assay: ELISA

| EC50 | Binder |
| --- | --- |
| 5.29 nM | B9 |
| 30.3 nM | B10 |
| 27.5 nM | B11 |
| 78 nM | B12 |
| 0.954 nM | B13 |
| 52.6 nM | B14 |
| 417 nM | B15 |
| 291 nM | B16 |
| 27.7 nM | B17 |
| 349 nM | B18 |
| 624 nM | B19 |
| 6.97 nM | B20 |
| 91.3 nM | B21 |
| 27.8 nM | B22 |
| 9.27 nM | B23 |
| 3.77 nM | B24 |
